In PMC9340540:

What was measured:
[1] = molecular target: CHN-1 (C. elegans)
Target sequence in this assay (main, as listed by the source): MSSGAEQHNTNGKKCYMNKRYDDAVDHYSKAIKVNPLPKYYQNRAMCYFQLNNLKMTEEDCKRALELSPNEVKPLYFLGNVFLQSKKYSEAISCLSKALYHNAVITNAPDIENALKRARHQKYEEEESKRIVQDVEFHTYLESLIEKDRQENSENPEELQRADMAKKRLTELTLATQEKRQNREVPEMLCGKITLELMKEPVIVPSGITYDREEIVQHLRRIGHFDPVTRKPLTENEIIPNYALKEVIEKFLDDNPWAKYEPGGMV

[2] = molecular target: CHN-1 (C. elegans); experiment: SEC; S200 Superdex column; CHN-1 alone, UFD-2 alone and CHN-1 + UFD-2 mixed in equal molar ratios

Chain of UFD-2 (Q09349 whole entry): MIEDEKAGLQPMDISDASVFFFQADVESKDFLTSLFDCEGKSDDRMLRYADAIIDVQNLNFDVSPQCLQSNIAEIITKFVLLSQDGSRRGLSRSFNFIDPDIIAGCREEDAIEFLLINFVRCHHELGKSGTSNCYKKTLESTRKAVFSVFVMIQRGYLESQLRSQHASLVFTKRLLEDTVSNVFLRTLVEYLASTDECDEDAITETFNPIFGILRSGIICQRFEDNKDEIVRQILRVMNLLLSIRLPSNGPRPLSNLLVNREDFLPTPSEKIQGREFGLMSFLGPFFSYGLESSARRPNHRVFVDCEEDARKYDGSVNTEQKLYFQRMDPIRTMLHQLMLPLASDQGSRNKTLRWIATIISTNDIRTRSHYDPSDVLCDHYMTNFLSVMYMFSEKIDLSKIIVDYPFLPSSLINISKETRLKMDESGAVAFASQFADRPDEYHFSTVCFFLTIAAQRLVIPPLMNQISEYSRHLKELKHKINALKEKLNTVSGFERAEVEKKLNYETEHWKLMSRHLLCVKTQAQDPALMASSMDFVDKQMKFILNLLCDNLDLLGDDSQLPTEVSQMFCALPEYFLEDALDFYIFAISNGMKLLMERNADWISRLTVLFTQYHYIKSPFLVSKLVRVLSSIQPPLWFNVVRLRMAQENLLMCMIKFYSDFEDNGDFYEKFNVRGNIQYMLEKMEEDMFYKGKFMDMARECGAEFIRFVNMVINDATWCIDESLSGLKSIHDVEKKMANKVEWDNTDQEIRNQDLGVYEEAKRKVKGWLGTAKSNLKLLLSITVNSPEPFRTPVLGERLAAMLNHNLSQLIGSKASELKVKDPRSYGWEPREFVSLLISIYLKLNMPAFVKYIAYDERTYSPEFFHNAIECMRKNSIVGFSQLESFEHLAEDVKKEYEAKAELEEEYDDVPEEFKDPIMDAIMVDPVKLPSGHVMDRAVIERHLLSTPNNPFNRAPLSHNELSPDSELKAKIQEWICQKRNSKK

CHN-1 auto-ubiquitylation (UBE2D1); UFD-2 titrated at 0.3, 0.65 and 1.3 μM against 1.3 μM CHN-1 [1] [fold] | stoichiometry N [2] | Substance
2 | – | UFD-2 (from UniProt Q09349 1-984) (enzyme)
– | 2 | CHN-1 (enzyme)
